Here are results for six molecules from patent US9121022B2, “Method for controlling herbicide-resistant plants” (priority 2010, dated 2015).

{Alexa488} = Alexa Fluor 488 (Invitrogen) label

Data set [1] concerns Glyphosate-resistant Palmer amaranth plants having 49 or 63 copies EPSPS. The experiment in a line: salicylic acid pretreatment before dsRNA and glyphosate (Example 15). To be noted: 15 millimolar SA 1, 5, or 24 hours before dsRNA; 7 days after glyphosate. In kind it is in vivo. The method, then: Salicylic acid (SA) induces virus resistance in tobacco; see, e.g., Chivasa et al. (1997) Plant Cell, 19:547-557. Glyphosate-resistant Palmer amaranth plants having 49 or 63 copies EPSPS were pretreated with 15 millimolar SA. A solution of the four oligonucleotide-size “short” EPSPS dsRNA molecules (described in Example 1) was applied by hand at 1, 5, or 24 hours after treatment with SA, followed 72 hours later by spraying with glyphosate (1682 g acid equivalent per hectare of Roundup® WeatherMAX® brand herbicide).

Data set [2] deals with detached leaves of glyphosate-resistant Palmer amaranth. As to the kind of experiment: petiole uptake of fluorescently labelled ssDNA oligonucleotide into detached leaves (Example 9). Set-up: species or system Palmer amaranth (Amaranthus palmeri). The method, then:
Petioles of detached leaves of glyphosate-resistant Palmer amaranth were placed in 200 mM sucrose solution with fluorescently labelled ssDNA oligonucleotides (SEQ ID NO:15). Leaf images were taken by Bio-Rad PharosFX imager equipped with a 488 nm laser from 4 h up to 48 h after uptake through petiole. Leaves incubated with 200 mM sucrose alone served as control.

The subject of data set [3] is glyphosate-resistant Palmer amaranth plants having 16 copies of EPSPS. As to the kind of experiment: EPSPS tiling-segment polynucleotides, plant height 11 days after herbicide (Example 21). It is filed as in vivo. To be noted: 0.01 nanomole DNA/plant; glyphosate 840 g ae/ha 48 hours later. An excerpt: Twelve dsRNAs of approximately 250 bp each and having one strand of the dsRNA corresponding to the EPSPS tiled DNA sequences of SEQ ID NOS:41-52 (Table 8) were designed to cover in a tiling fashion the full coding sequence and part of the 5′ and 3′ untranslated regions of the Palmer amaranth EPSPS gene, as depicted in FIG. 25A.
The four oligonucleotide-size “short” EPSPS dsRNA molecules as described in Example 1 and FIG. 1 are located in the tiling segments 2, 3, 4, and 8 respectively, and are shown as light grey bars within those segments. The polynucleotides were synthesized in vitro transcription using a pBR322 vector with the EPSPS polynucleotides inserted at EcoRI and BamHI cloning sites; plasmid DNA was isolated with Qiagen Maxi prep kits and digested with EcoRI and BamHI restriction enzymes. The digested DNA solution was used in the treatment of the plants without further purification. […]

Data set [4] deals with phytoene desaturase (PDS) gene in tomato (Solanum lycopersicum). The experiment in a line: topical PDS dsRNA on tomato, bleaching and stunting (Example 25). In kind it is in vivo. Conditions: 2.5 micromolar, 40 microliters per plant. An excerpt:
A 201 nucleotide dsRNA polynucleotide with an anti-sense strand capable of hybridizing to the RNA encoded by the sequence […] […] […] (SEQ ID NO:60) which correspond to the nucleotides at positions 1724-1923 of the mRNA transcribed from the tomato PDS gene sequence (SEQ ID NO:59) was synthesized by RT PCR using oligonucleotide primers with the sequences […] (SEQ ID NO:61, sense primer) and […] (SEQ ID NO:62, anti-sense primer). A 2.5 micromolar dsRNA solution was made with the 201 nucleotide dsRNA polynucleotide (SEQ ID NO:60) in 0.01% SILWET L-77® brand surfactant in 5 millimolar sodium phosphate buffer, pH 6.8.
Three-week old tomato seedlings were treated as follows. Two fully expanded leaves were dipped into a freshly made 0.1% SILWET L-77® brand surfactant solution in double-distilled water for a few seconds. The leaves were allowed to dry for 30 minutes to 1 hour. Each plant was then treated by applying 20 microliters dsRNA solution to the top surface of two SILWET® brand surfactant-treated leaves (total 40 microliters per plant). Control plants were treated with buffer. The plants were kept in a growth chamber for observation. FIG. 30 depicts the systemic silencing of the target gene PDS as evidenced by bleaching of the dsRNA-treated plants 30 days after topical treatment.

For data set [5], the system named is volunteer glyphosate-resistant corn plants. The experiment in a line: synthetic Pol III gene dsDNA on volunteer glyphosate-resistant corn in soybean (Example 8). In kind it is in vivo. To be noted: glyphosate 7 days after dsDNA; 15 days later. The source says:
This example illustrates the utility of employing a synthetic Pol III gene in compositions and methods of this invention. With reference to SEQ ID NO:3 and FIG. 2, a synthetic Pol III gene is created using elements from an Arabidopsis thaliana U6 snRNA gene to provide a dsDNA molecule with two copies of RGCCCR elements (bold and underlined), an upstream sequence element (USE) having the sequence “[…]” (SEQ ID NO:4, bold and underlined), a TATA box (bold and underlined), a “G” nucleotide (bold and underlined), anti-sense DNA (italics) corresponding to a bacterial DNA encoding an EPSPS protein (see U.S. Pat. RE39,247) that imparts resistance to glyphosate herbicide when expressed in transgenic corn plants, an “[…]” element (SEQ ID NO:5, bold and underlined) embedded in the anti-sense DNA, an “[…]” element (SEQ ID NO:6, bold and underlined) followed by sense DNA (lower case) and a “TTTTTT” terminator element (SEQ ID NO:7, bold and underlined). A solution of 0.1 wt % SILWET L-77® brand organosilicone surfactant and a solution of multiple copies of the dsDNA molecule are sprayed onto leaves of volunteer glyphosate-resistant corn plants growing in a field of glyphosate-resistant soybean plants, followed 7 days later by treatment with Roundup WeatherMAX® brand glyphosate herbicide. […]

Turning to `O=C(O)c1ccccc1O` [Salicylic acid], the “improvement of the effects of the dsRNAs and glyphosate activity (plant height)” value in data set [1] is on record as “No improvement”.

Consider “ACCCTCCACGACTGCCCTTT (DNA, 5' {Alexa488}, backbone not given here; listed as Amaranthus palmeri) [Anti-sense_PO1_488, ssDNA anti-sense to Amaranthus palmeri EPSPS]”, for which, in data set [2] (after treatment), the “time of release from vascular tissue into cells” value was determined as 8 h. Further, the “vascular uptake into leaf” value in data set [2] (petiole uptake in 200 mM sucrose, imaged 4 h to 48 h) is listed as “slightly time-dependent vascular uptake”.

B1: combination of tiling segments 2, 5, 8, and 11: SEQ ID NOS: 42, 45, 48, 51 applied together (nucleic acid, listed as Amaranthus palmeri)
chain 1: CACCAACCCACTTTCTCTTTGCCCACCAAAACTTTGGTTTGGTAAGAACTAAGCCCTCTTCTTTCCCTTCTCTCTCTTAAAAGCCTAAAATCCACCTAACTTTTTCAGCCAACAAACAACGCCAAATTCAGAGGAAGAATAATGATGGCTCAAGCTACTACCATCAACAATGGTGTCCATACTGGTCAATTGCACCATACTTTACCCAAAACCCAGTTACCCAAATCTTCAAAAACTCTTAATT
chain 2: GAGGGTTGTGGTGGTCTGTTTCCTGTTGGTAAAGATGGAAAGGAAGAGATTCAACTTTTCCTTGGTAATGCAGGAACAGCGATGCGCCCATTGACAGCTGCGGTTGCCGTTGCTGGAGGAAATTCAAGTTATGTGCTTGATGGAGTACCAAGAATGAGGGAGCGCCCCATTGGGGATCTGGTAGCAGGTCTAAAGCAACTTGGTTCAGATGTAGATTGTTTTCTTGGCACAAATTGCCCTCCTGTTCGGG
chain 3: ACAAGCAGTTTACAGGGTGATGTAAAATTTGCCGAAGTTCTTGAGAAGATGGGTTGCAAGGTCACCTGGACAGAGAATAGTGTAACTGTTACTGGACCACCCAGGGATTCATCTGGAAAGAAACATCTGCGTGCTATCGACGTCAACATGAACAAAATGCCAGATGTTGCTATGACTCTTGCAGTTGTTGCCTTGTATGCAGATGGGCCCACCGCCATCAGAGATGTGGCTAGCTGGAGAGTGAAGGAAA
chain 4: TAATTATGAAATTCTTTGTATTATGTTTGTGAGATTTGAAGTAGCTTATAAATTACAATGTACTAAAGTCTAGAAATAAGTTATGTATCTTTTAAATCAATGAGAAATGCATACTTGAAAGGCTTGACCTTGTATTTGTGACCTAAAGAGTACTAACTTTGGAGTTTCCAACTCATTTGTTTATCTCATTTTTTTTTAATTTTTGATTTAAATTGTTTATTTTTATGAGTAATCATGTATCTTTCTTATTCTAACCAAATGTAATACTCCTTC
For the molecule B1, the “efficacy (above-ground height 11 days after herbicide; FIGS. 25B, 25C)” value in data set [3] was “greatest efficacy”.

B2: combination of tiling segments 7, 8, and 9: SEQ ID NOS: 47, 48, 49 applied together (nucleic acid, listed as Amaranthus palmeri)
chain 1: TTGAAATGACAATAAAGTTGATGGAACGCTTTGGAGTATCCGTAGAACATAGTGATAGTTGGGACAGGTTCTACATTCGAGGTGGTCAGAAATACAAATCTCCTGGAAAGGCATATGTTGAGGGTGATGCTTCAAGTGCTAGCTACTTCCTAGCCGGAGCCGCCGTCACTGGTGGGACTGTCACTGTCAAGGGTTGTGGAACAAGCAGTTTACAGGGTGATGTAAAATTTGCCGAAGTTCTTGAGAAGAT
chain 2: B1 chain 3
chain 3: AGATGGGCCCACCGCCATCAGAGATGTGGCTAGCTGGAGAGTGAAGGAAACCGAACGGATGATTGCCATTTGCACAGAACTGAGAAAGCTTGGGGCAACAGTTGAGGAAGGATCTGATTACTGTGTGATCACTCCGCCTGAAAAGCTAAACCCCACCGCCATTGAAACTTATGACGATCACCGAATGGCCATGGCATTCTCTCTTGCTGCCTGTGCAGATGTTCCCGTCACTATCCTTGATCCGGGATGC
For B2, in data set [3], the “efficacy (above-ground height 11 days after herbicide; FIGS. 25B, 25C)” value is given as “greatest efficacy”.

B3: 201 nucleotide dsRNA polynucleotide: dsRNA to positions 1724-1923 of tomato PDS mRNA (SEQ ID NO:59) (nucleic acid)
chain: TCGCAGCGACTCAGAAATTATTGATGCAACGATGAAGGAACTAGCAACGCTTTTTCCTGATGAAATTTCAGCAGATCAAAGCAAAGCAAAAATATTGAAGTACCATGTTGTCAAAACTCCGAGGTCTGTTTATAAAACTGTGCCAGGTTGTGAACCCTGTCGGCCTTTACAAAGATCCCCAATAGAGGGGTTTTATTTAG
Turning to B3, the “growth compared to control plants” value in data set [4] is listed as “severely stunted”. Also, in data set [4] (30 days after treatment), the “systemic silencing of PDS (FIG. 30)” value is “bleaching”.

B4: synthetic Pol III gene: dsDNA from Arabidopsis U6 snRNA gene elements with anti-sense and sense DNA of bacterial EPSPS (nucleic acid)
DNA: GGCCCATAGGCCTTTTTCTAAAATAGGCCCATTTAAGCTATTAACAATCTTCAAAAGTACCACATCGCTTAGGTAAAGAAAGCAGCTGAGTTTATATATGGTTAGAGACGAAGTAGTGATTGCGACGAGCGACGTCTCGCCCTCATCGCAATCCACGCCATTGAGCTTGAGGCCATTGGCGACGGCCGAGAGGCGGTCGCTTAAGATTAGCATGTCCTTGACGCGGAGTTCTTCCAGACCGTTCATCACGGTCGCCCCTTCCGCGAAGGCGGCGGCGACAGCGAGAATCGGATATTCGTCGATCATCGAAGGCGCGCGGTCTTCCGGCACCGTGACGCATAAACACGGTGCCGGAAGACCGCGCGCCTTCGATGATCGACGAATATCCGATTCTCGCTGTCGCCGCCGCCTTCGCGGAAGGGGCGACCGTGATGAACGGTCTGGAAGAACTCCGCGTCAAGGAAAGCGACCGCCTCTCGGCCGTCGCCAATGGCCTCAAGCTCAATGGCGTGGATTGCGATGAGGGCGAGACGTCGCTCGTCGTTTTTTTTGGCAAAAA
As for B4, in data set [5], the “condition of soybean crop plants” value is reported as “thriving” and the “condition of volunteer corn plants” value is recorded as “dead”.
